Data published in patent US20170306050A1.

Legend:
Experiment in all cases: cell-based or functional assay
CXCL10 = target: CXCL10
CXCL11 = target: T1, CXCL11
T1 sequence (O14625 22-94, species assumed, looked up): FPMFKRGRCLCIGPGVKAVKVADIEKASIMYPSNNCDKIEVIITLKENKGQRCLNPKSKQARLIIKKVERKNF

CXCL9 = target: T2, CXCL9
T2 sequence (Q07325 23-125, species assumed, looked up): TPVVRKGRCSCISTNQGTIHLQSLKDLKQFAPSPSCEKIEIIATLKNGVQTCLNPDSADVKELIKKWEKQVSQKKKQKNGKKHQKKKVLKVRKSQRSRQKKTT

Measured: in vitro enzymatic cleavage; T cell migration assay

Sequence of MMP9 (Example 10, in vitro enzymatic analyses) (enzyme) (P41245 108-730): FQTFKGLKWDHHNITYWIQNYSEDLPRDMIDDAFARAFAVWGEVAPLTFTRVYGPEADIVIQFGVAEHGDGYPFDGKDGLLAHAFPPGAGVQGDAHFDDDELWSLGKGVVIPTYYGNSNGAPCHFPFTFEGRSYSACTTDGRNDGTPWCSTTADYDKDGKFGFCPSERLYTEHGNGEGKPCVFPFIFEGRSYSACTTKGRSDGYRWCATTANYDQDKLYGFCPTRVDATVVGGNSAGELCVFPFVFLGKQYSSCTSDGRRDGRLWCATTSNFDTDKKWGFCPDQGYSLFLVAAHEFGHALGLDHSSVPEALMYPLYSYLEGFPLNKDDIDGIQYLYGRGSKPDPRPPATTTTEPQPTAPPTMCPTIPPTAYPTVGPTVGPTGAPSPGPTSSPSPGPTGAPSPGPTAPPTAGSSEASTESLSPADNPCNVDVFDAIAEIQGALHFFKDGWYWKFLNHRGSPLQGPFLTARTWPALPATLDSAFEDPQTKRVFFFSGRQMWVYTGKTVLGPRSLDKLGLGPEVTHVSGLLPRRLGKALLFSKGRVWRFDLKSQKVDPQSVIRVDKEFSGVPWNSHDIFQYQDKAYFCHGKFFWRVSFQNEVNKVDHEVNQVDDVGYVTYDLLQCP
Sequence of CXCL10 (P02778 22-98): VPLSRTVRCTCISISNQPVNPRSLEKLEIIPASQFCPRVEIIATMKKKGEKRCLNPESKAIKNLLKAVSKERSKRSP

MMP9 (Example 10, in vitro enzymatic analyses) (enzyme)
< 88%: all assays above
